Consider 1 molecule from patent US20090263864A1 (CRUCELL HOLLAND B V, published 2009).

The target of this assay is T1, CD46 on human coloncarcinoma LS174T cells (human, UniProt P15529 35-392).
T1 construct: whole, on cells
T1 sequence (looked up): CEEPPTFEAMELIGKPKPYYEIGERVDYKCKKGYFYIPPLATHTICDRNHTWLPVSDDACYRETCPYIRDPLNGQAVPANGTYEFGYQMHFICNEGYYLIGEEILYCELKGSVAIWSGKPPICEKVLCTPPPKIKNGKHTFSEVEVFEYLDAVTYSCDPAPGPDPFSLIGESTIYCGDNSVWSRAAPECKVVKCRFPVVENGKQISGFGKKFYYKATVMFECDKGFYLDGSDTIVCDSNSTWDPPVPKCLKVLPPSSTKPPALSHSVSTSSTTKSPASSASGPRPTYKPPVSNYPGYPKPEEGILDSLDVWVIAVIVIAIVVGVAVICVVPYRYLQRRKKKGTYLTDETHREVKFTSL
As to the kind of experiment: FACS on LS174T cells preincubated with normal human serum; biotinylated antibody, streptavidin-PE; MFI. The protocol:
Binding (MFI, ordinate) was determined by FACS after incubation with streptavidin-conjugated phycoerythrin.

B1: K53 IgG (antibody, V domains shown)
VH: QVQLVQSGAEVKKPGASVKVSCKASGYTFTSYGISWVRQAPGQGLEWMGWISAYNGNTNYAQKLQGRVTMTTDTSTSTAYMELRSLRSDDTAVYYCARGMMRGVFDYWGQGTLVTVST
VL: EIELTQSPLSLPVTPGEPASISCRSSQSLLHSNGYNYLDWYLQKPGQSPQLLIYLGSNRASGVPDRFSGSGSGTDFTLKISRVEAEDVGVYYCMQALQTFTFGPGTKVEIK
notes: also called clone K53; anti-CD46 clone K53
Turning to B1, the “EC50 (read off the curve)” value is ~3 µg/mL.
